Test [1] concerns the target T1, dog B1 (Canis lupus familiaris, UniProt Q9BDQ5, D322E/F324Y/R319K).
T1 construct: the chimeric canine/human receptor described above was used in the experiments described below; C-terminal cytoplasmic tail of human bradykinin B1 receptor (fusion partner of the chimera); expressed in transfected cells; host or cells: 293-EBNA (293E) cells, membranes
T1 sequence (Q9BDQ5 with tags, fused parts or gaps R319K/D322E/F324Y): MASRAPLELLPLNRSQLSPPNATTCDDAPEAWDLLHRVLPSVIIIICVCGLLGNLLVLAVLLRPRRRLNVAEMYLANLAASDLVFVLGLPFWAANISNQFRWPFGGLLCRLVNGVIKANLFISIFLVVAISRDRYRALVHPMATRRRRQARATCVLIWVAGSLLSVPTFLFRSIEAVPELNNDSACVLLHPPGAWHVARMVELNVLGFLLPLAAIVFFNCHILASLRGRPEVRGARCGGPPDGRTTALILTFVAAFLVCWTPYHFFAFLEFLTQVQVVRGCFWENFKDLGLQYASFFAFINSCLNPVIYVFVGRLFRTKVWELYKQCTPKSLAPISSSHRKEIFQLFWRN
The experiment in a line: [3H]-des-Arg10-kallidin binding, 293E membranes, dog B1 (canine/human chimera). To be noted: 0.6 nM [3H]-dAKd. From the text: Additionally, a canine/human chimeric bradykinin B1 receptor comprising amino acids 1 to 320 of the canine sequence and amino acids 319–353 of human bradykinin B1 receptor was generated. Any number of chimeric molecules, for example, a chimera comprising amino acids 1–315 of the canine sequence and amino acids 314–353 of the human sequence can be used.
Membrane preparations for use in accordance with the methods of the present invention were generated as follows. 293E cells expressing B1 receptors were harvested and pelleted. Cells were washed once with PBS and once with a membrane buffer (for example, 10 mM HEPES pH 7.5, 1 μM phosphoramidon, 3 μM amastatin, 1 μM captopril, 2 μM dithiothreitol (DTT)). Cells were resuspended in membrane buffer and Dounce homogenized on ice 35 times. The membranes were collected by centrifugation at 15,000×g for 30 min. at 4° C. and resuspended in membrane buffer containing 0.2% bovine serum albumin (BSA) at a final concentration of approximately 5×10^7 cell equivalents per ml. Aliquots were flash frozen and stored at −80° C. […]
(§1) The method of the present invention employs a binding assay such as the one described below. […] 50 μl of scintillation fluid was added to each well and plates were counted in a Wallac Microbeta® TriLux for 10 min. per well.

Test [2] relates to CXCR2 receptor. The experiment in a line: CXCR2 radioligand binding, 293E membranes, monkey/primate receptors. To be noted: recombinant CXCR2 from six primate species. As for the experimental part: Membrane preparations for use in accordance with the methods of the present invention were generated as follows. 293E cell monolayers expressing CXCR2 receptors were washed twice with PBS and 5 ml of ice cold homogenizing buffer (for example, 10 mM HEPES pH 8.0, 10 mM EDTA). Cells were resuspended in membrane buffer and Dounce homogenized on ice 35 times. The membranes were collected by centrifugation at 15,000×g for 30 min. at 4° C. and resuspended in membrane storage buffer (10 mM Tris-HCl pH8.0, 1.2 mM MgSO4, 0.1 mM EDTA, 25 mM NaCl, 1 unit/ml bacitracin) at a final concentration of approximately 5×10^7 cell equivalents per ml. Aliquots were flash frozen and stored at −80° C. Frozen aliquots were subsequently thawed, diluted, and sonicated on ice using a Branson Sonifier® 250 (4×5 sec, 40% output).
Prior to use in a binding assay, a membrane preparation is “calibrated” as described below to determine the amount of membrane preparation to be used. A frozen sample of a membrane preparation is thawed and the preparation diluted in assay buffer to obtain several different concentrations of membranes, for example, 1:5, 1:10, 1:20, 1:40 and so on. The diluted membrane preparation is sonicated in a bath style sonicator for 5 minutes at room temperature. Each dilution is plated in a 96-well plate, for example, with quintuplicate samples for binding of ligand and wells to evaluate non-specific binding in triplicate. The dilutions that yield approximately 200 cpm total counts are chosen for subsequent assays.
For determining binding affinity for the orthologous CXCR2 receptors, described herein, the method of the present invention employs a binding assay such as the one described below. A suitable binding assay buffer for receptor binding consists of 10 mM Tris pH 8.0, 0.1 mM EDTA, 1.2 mM MgSO4, 25 mM NaCl and 0.03% CHAPS (Sigma, St. Louis, Mo.). […] 50 μl of scintillation fluid was added to each well and plates were counted in a Wallac Microbeta® TriLux for 1 min. per well.

The target of test [3] is B1 receptors (species homologues). The experiment in a line: [3H]-des-Arg10-kallidin binding across all cloned B1 orthologues. The settings on record: 0.6 nM or 1.5 nM (rat) [3H]-dAKd. On the procedure:
(§2) Membrane preparations for use in accordance with the methods of the present invention were generated as follows. 293E cells expressing B1 receptors were harvested and pelleted. Cells were washed once with PBS and once with a membrane buffer (for example, 10 mM HEPES pH 7.5, 1 μM phosphoramidon, 3 μM amastatin, 1 μM captopril, 2 μM dithiothreitol (DTT)). Cells were resuspended in membrane buffer and Dounce homogenized on ice 35 times. The membranes were collected by centrifugation at 15,000×g for 30 min. at 4° C. and resuspended in membrane buffer containing 0.2% bovine serum albumin (BSA) at a final concentration of approximately 5×10^7 cell equivalents per ml. Aliquots were flash frozen and stored at −80° C. Frozen aliquots were subsequently thawed, diluted, and sonicated on ice using a Branson Sonifier® 250 (4×5 sec, 40% output).
(§3) Prior to use in a binding assay, a membrane preparation is “calibrated” as described below to determine the amount of membrane preparation to be used. […]
as §1

Test [4] has as its target tree shrew B1 receptor. The experiment in a line: [3H]-des-Arg10-kallidin binding, 293E membranes, tree shrew B1. The settings on record: read-out: average dissociation constant (KD). Set-up: species or system tree shrew (Tupaia minor). As for the experimental part:
as §2, §3, §1

Test [5] deals with tree shrew bradykinin B1 receptor (UniProt Q8HZP1). The experiment in a line: radioligand saturation binding; legend: [3H]-des-Arg10-kallidin.
Test [6] deals with rabbit bradykinin B1 receptor (rabbit) (UniProt P48748). The test is described as above.
Test [7] addresses pig bradykinin B1 receptor (UniProt Q8HZN9). Described as above.
The target in test [8] is canine/human chimeric bradykinin B1 receptor (UniProt Q9BDQ5). The description is as above.
The target of test [9] is rhesus macaque bradykinin B1 receptor (UniProt Q8HZP2). Described as above.
The target in test [10] is human bradykinin B1 receptor (human) (UniProt P46663). The test is described as above.
The target in test [11] is tree shrew bradykinin B1 receptor (UniProt Q8HZP1). The experiment in a line: radioligand competition binding. For orientation: In a radioligand displacement assay an active substance lowers the binding of a labelled ligand.
For test [12], the target named is rabbit bradykinin B1 receptor (rabbit) (UniProt P48748). The experiment in a line: radioligand competition binding.
The target of test [13] is pig bradykinin B1 receptor (UniProt Q8HZN9). The experiment in a line: radioligand competition binding.
Test [14] concerns the target canine/human chimeric bradykinin B1 receptor (UniProt Q9BDQ5). The experiment in a line: radioligand competition binding.
Test [15] addresses rhesus macaque bradykinin B1 receptor (UniProt Q8HZP2). The experiment in a line: radioligand competition binding.
The target of test [16] is human bradykinin B1 receptor (human) (UniProt P46663). The experiment in a line: radioligand competition binding.

The values that follow come from US7041463B2, “Orthologues of human receptors and methods of use” (Pharmacopeia Drug Discovery, Inc., priority 2000, dated 2006).

Chain of rabbit bradykinin B1 receptor (rabbit) (P48748 whole entry): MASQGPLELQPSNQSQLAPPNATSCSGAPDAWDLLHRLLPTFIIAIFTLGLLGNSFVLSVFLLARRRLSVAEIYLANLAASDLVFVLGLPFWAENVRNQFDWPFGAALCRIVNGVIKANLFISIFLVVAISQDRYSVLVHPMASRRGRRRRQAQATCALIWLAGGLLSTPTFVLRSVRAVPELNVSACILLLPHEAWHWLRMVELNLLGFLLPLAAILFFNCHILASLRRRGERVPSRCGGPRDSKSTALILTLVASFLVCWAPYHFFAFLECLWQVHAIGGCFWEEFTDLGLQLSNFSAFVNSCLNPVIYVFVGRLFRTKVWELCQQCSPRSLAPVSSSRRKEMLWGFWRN
Chain of tree shrew bradykinin B1 receptor (Q8HZP1 whole entry): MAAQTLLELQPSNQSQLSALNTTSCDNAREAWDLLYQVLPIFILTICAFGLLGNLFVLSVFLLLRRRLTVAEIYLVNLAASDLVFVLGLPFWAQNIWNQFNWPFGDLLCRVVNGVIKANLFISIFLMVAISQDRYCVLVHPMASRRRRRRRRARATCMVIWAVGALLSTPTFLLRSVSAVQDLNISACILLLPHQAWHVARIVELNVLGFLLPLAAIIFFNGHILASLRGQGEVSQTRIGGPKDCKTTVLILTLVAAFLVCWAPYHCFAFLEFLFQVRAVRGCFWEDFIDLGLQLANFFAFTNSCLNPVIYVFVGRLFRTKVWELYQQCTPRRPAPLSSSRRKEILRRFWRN
Chain of des-Arg^10-kallidin (P01042 whole entry, looked up): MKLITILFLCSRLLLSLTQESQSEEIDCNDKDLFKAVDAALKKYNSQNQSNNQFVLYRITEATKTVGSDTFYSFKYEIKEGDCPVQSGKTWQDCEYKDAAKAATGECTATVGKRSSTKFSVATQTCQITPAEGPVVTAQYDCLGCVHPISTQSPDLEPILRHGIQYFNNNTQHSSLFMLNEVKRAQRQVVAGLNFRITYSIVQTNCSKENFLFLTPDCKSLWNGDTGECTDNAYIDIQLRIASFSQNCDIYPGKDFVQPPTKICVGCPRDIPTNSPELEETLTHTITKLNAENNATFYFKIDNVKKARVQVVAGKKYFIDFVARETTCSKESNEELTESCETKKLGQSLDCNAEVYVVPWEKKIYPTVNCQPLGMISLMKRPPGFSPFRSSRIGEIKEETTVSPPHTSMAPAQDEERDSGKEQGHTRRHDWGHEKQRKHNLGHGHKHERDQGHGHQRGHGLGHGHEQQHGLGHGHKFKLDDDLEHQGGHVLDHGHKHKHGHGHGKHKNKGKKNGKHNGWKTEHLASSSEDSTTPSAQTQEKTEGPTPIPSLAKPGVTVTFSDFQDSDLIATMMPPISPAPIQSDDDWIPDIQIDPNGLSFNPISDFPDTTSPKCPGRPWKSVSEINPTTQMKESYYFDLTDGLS
Chain of [des-Arg^10] [Leu^9]kallidin (P01042 whole entry, looked up): as above
Chain of pig bradykinin B1 receptor (Q8HZN9 whole entry): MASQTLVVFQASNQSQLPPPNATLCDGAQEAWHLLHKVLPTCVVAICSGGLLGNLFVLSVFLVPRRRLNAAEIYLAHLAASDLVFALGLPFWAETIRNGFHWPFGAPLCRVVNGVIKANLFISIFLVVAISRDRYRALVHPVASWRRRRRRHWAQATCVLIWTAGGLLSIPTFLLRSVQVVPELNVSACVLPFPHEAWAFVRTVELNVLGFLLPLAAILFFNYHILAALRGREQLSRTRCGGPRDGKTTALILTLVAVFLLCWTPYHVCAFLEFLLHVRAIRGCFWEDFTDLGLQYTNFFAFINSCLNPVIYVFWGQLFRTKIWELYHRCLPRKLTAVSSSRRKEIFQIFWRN

As to [des-Arg^10] [Leu^9]kallidin [dALKd], the “affinity (K1) at dog B1, in words” value in [1] was “more than an order of magnitude weaker”.

“ENA-78: ligand bound by the encoded CXCR2 receptors”: the “binding to the encoded receptors, in words” value (from here on “binding”) in test [2] is listed as “capable of binding”.

In the case of `N=C(N)NCCC[C@H](NC(=O)[C@@H](N)CCCCN)C(=O)N1CCC[C@H]1C(=O)N1CCC[C@H]1C(=O)NCC(=O)N[C@@H](Cc1ccccc1)C(=O)N[C@@H](CO)C(=O)N1CCC[C@H]1C(=O)N[C@@H](Cc1ccccc1)C(=O)O` [dAKd, des-Arg^10-Kallidin], the “affinity (K1) at all B1 species homologues, in words” value in test [3] was “approximately equipotent”; in test [3] (listed as dAKD), “strong affinity”. In [4], the Kd turned out to be 4.2 nM.

As for interleukin 8: native ligand of CXCR2, in test [2], the “binding” value is “capable of binding”.

As for “des-Arg^10-kallidin (from UniProt P01042 380-388)”, the Kd in [5] was 4.2 ?; in [6], 1.3 ?; in test [7], 1.9 ?; in test [8], 3.3 ?; in test [9], 2.8 ?; in [10], 0.6 ?. Also, the Ki in test [11] stood at 6.1 nM; in test [12], 3.4 nM; in [13], 2.3 nM; in test [14], 4.2 nM; in test [15], 3.3 nM; in test [16], 1.5 nM.

Regarding “[des-Arg^10] [Leu^9]kallidin (from UniProt P01042 380-388)”, the Ki in [11] stood at 22 nM; in test [12] it was 9.3 nM; in test [13] it was 9.5 nM; in [14] it was 120 nM; in [15] it was 9.5 nM; in [16], 4.6 nM.

Take “Gro-alpha: ligand bound by the encoded CXCR2 receptors”: in test [2], the “binding” value is listed as “capable of binding”.

Broadly, the Kd is the constant that tells how readily two partners part at equilibrium. By Ki is commonly meant the equilibrium dissociation constant of an inhibitor or competing ligand from its target. Read a high Ki as a looser hold on the target.
